The supplement of paper PMC12764529
± gives the half width of the 95% confidence interval.

Experiments:
[1] = folding stability dG unfold from chymotrypsin proteolysis; higher = more stable
Description: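 Folding stability of de novo designed mini-proteins (<80 aa, no Cys; designed by TrROS, TrMRF, ProteinMPNN and the joint model) was measured by cDNA display proteolysis with trypsin and chymotrypsin. Each protease was used at 11 concentrations in a threefold dilution series plus a no-protease condition. K50 was inferred by Bayesian fitting of sequencing counts, and dG unfold was derived against a sequence-predicted unfolded-state K50 (Tsuboyama et al. method). Sequences shown include variable-length N-terminal GS-type padding (SAGGSAGG...) inside a display construct carrying a PA tag. Rows were kept only if the AF2 dimer inter-PAE was >15, to exclude likely homo-oligomers.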

[2] = folding stability dG unfold (combined trypsin and chymotrypsin); higher = more stable
Method in brief: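 Sequencing followed digestion of designed mini-proteins with trypsin and chymotrypsin, each at 11 concentrations in threefold dilutions together with a no-protease condition. The mini-proteins were under 80 residues, had no cysteine, sat in a PA-tagged cDNA display construct, and were kept only if AlphaFold2 dimer inter-PAE was above 15. From the counts, Bayesian fitting gave K50, and unfolding free energy was derived against a sequence-predicted unfolded-state K50 and a shared folded-state K50, per protease or combined.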

| Sequence | folding stability dG unfold [1] [kcal/mol] | folding stability dG unfold [2] [kcal/mol] |
| --- | --- | --- |
| SAGGSAGGSAGMKVKSIKKLSKDPKNGKETFEITIPENGEKVTIETEPGKFEEVKKKLLKSAGGSAGGSAGG [r17_111_JUSTAS] | 0.359 ± 0.089 | -0.0508 ± 0.13 |
| SAGGPISVGEIEHAADNVDNSHQNGDPNEMMELYDEAEEIQDQYEENGDPEVRDEVKKVVERAKRHMGSAGG [r13_137_TrROS] | 0.364 ± 0.077 | -0.423 ± 0.45 |
| SAGGSAMKAKVVDTSLKESKTKDDSIIVTVTVKYPDGSVTPIVYPVSSSGGISEEEVEKAIKELLESAGGSA [r15_233_JUSTAS] | -0.138 ± 0.057 | -0.661 ± 0.14 |
| SAGGSAGGSAGEAAIEAAIAANSPDKDATVALPGGETVRLKFTRDPKVPTLLSLDVEREPPRSAGGSAGGSA [r18_202_JUSTAS] | -0.61 ± 0.29 | < -1 |
| SAGGSAGGSAGPMWRIEVENPNGRTPEIWIPPNMDTPEELVDELKKHFPGLKKVKIEPYPSAGGSAGGSAGG [r11_311_TrROS] | 0.184 ± 0.12 | -0.391 ± 0.27 |
| SAGGSAGGSAGIPADAPEAVVRLDLYPDGPDTVVTVEAPFKDIPLDDIPENAVVRLEASPLGSAGGSAGGSA [r18_21_TrMRF] | 0.0909 ± 0.06 | -0.539 ± 0.1 |
| SAGGMKKITIPMKVLEEKFGIPKNTSPEELAKKLNPKEKVEVLSVTSEKSENGEENPTVTVLVIPPKESAGG [r13_723_TrMRF] | 0.0873 ± 0.14 | -0.22 ± 0.15 |
| SAGGSAGGSMKEGTFNSEEEVEELKKKYPNVEVYEDPETNTIHVKIKEESEKEYEEENIKKLKSAGGSAGGS [r20_191_JUSTAS] | -0.897 ± 0.6 | < -1 |
| SAGGSAGGSAGGMSTVVEESFYPEERVLRRTTTTVEEEGVTTEPSVYTVEPGDPNVLTPASAGGSAGGSAGG [r7_866_JUSTAS] | 0.0822 ± 0.22 | -0.434 ± 0.25 |
| SAGMTHVLPVPELSPEEVRALAEALPEGEELVLLVPGPELLAELRAAGFPVDPARFRLATPEERAELLASAG [r5_354_JUSTAS] | 0.857 ± 0.13 | -0.189 ± 0.12 |
| SAGGSAGGSAGGRPIPLDEFRDMPPNWKIEFNNGKEVEIPADDIKKPIDKGDTVRIEPVPSAGGSAGGSAGG [r7_643_TrROS] | 0.705 ± 0.024 | 0.188 ± 0.098 |
| SAGGSAGGSKKIVLVLKVKKEKAKEKVEKAKKELEKALPKDYKIKSIEVKYDPETDKVIIVADSAGGSAGGS [r12_308_TrMRF] | 0.376 ± 0.49 | -0.0532 ± 0.28 |
| SAGGSAGGMTARKTYEVEVPADDPDALADLAFDLPAGDTVYFRTPGPDLRAVVTDDVPVVEPAGSAGGSAGG [r6_550_TrMRF] | 0.0243 ± 0.18 | < -1 |
| SAGGLTTQETVSLTSPTNVALTVLSTSVTLSPSTRTLSYTVQGPDGTVTTETVVTPAPLPELDPSAGSAGGS [r16_132_JUSTAS] | 0.346 ± 0.15 | -0.159 ± 0.15 |
| SAGGSAGGSAGGSKLKEGEKYKVYFKKTKKELEVETLEQLKALEKAGKKVEIVKIEKVPSAGGSAGGSAGGS [r4_214_TrROS_Hall] | 0.153 ± 0.21 | -0.269 ± 0.14 |
| SAGGSAGGSAGGVLYLPDDVKVELVEVTPDGVAKLRVYVYEKDDGDPLVPVPGYDPGAGSAGGSAGGSAGGS [r10_934_TrMRF] | 0.126 ± 0.36 | -0.777 ± 0.48 |
| STITDVEIYKMPPGEEYPFPNGRKIPPGDYMIYNEDNGHYMSADQIRRILQEIEQELEKLPPPKKPENDKSA [r9_517_TrROS] | 0.251 ± 0.29 | -0.162 ± 0.43 |
| SAGGSAKPGEKLKIRMWNPDGETHEFDVKIPPGVRIRMPDNGQEQTFPPGDEIPFPPNMPIQVEKVSAGGSA [r15_152_TrROS] | 0.309 ± 0.086 | -0.121 ± 0.29 |
| SAGGSAGGSPGVRVKPVGDHYVVEIPLPPSVPLGRAVFEVEGGYAETVAVDPERGIATVRVPLSAGGSAGGS [r12_675_TrMRF] | 0.091 ± 0.11 | -0.352 ± 0.15 |
| SAPMTPAERARPRIKKLVNLLAEDGNFKVDIERDPGDPGVVVTIKLDPNSREKFAERLGIPRDELYDLISAG [r14_688_TrROS] | -0.0457 ± 0.23 | -0.373 ± 0.41 |
| SAGGSAGGSAGMEVIINDPEKAKNIPVNSKVKLPNGKEYKVKKVEYNPEIGYVKFIVSPESAGGSAGGSAGG [r11_316_TrMRF] | -0.489 ± 0.37 | -0.588 ± 0.34 |
| SAGGSAEEEEITIKLRITVYNEETGKPVKEIEIEIKVKKGQTLEQILEEAKKLLEEKGYKIVEIEISAGGSA [r15_195_TrROS_Hall] | 4.42 ± 0.31 | 4.52 ± 0.46 |
| SAGGSAGGSAGGSMKSVPVITTTTTVLPNGTTVTTTTVNNVTSSGTTSSTTTTVTPSLLSAGGSAGGSAGGS [r4_486_JUSTAS] | -0.571 ± 0.15 | -0.836 ± 0.22 |
| SAGGPAGEEVPVRITARIYMPDPDGKMHSHEIPIDIPMPVDELKEKLIKEIMDEHGYHITEIDIEPYSAGGS [r16_511_TrROS] | -0.432 ± 0.21 | -0.711 ± 0.25 |

| Sequence | folding stability dG unfold [1] [kcal/mol] | folding stability dG unfold [2] [kcal/mol] |
| --- | --- | --- |
| KKRTIEIPFPANGYKVKIEVPEDQGKPIDEEEIQKLLREWHPDMPADDMPAKEIAKYLADEPGIKEVEIERS [r1_463_TrROS] | 0.479 ± 0.25 | 0.132 ± 0.28 |
| SAGGPEKKILVARDSSDPNLPLEKIKEELEKKGFPPAEVTSAATEPLEKAREKAEKEGNPLIVLPVESAGGS [r16_94_JUSTAS] | -0.927 ± 0.32 | < -1 |
| SAGGSAGGWIKLDGKEVYIVIPDGNPEQIAKELKEQFPNGNIKPHPGQNAEEAAKKNKRVIWIPSAGGSAGG [r6_680_TrROS] | 0.771 ± 0.16 | 0.284 ± 0.37 |
| SAGGSAMVVPVASEEEARAVAEEAAARGEPVVIAFPGGRALVVETAAAPTPEPVLRVEEREVPPLLSAGGSA [r15_761_JUSTAS] | 0.744 ± 0.0083 | 0.216 ± 0.034 |
| SAGGSALTPAVAERLRELFPDGDLGLKAVKPGEVVVFPNGARNFNTEDAERVVVVLPDGEPLVLDVSAGGSA [r2_166_TrMRF] | 0.117 ± 0.14 | -0.241 ± 0.23 |
| SAGGPDPYNLKVEEETYPNPDGGEMKIPKIEIPDGRLKIDMEMRNPGNGKEHEHEITIPVKPGQEIFISAGG [r13_190_TrROS] | 0.906 ± 0.14 | 0.0459 ± 0.21 |
| SAGDLGEEALKDITENSTPVSPNETRTTTAVIKYKDKLVKITTTVKVPPESGTTVLSTPIEIFSPEELKSAG [r5_96_JUSTAS] | -0.118 ± 0.33 | < -1 |
| SAGGKLKEAFEKNGYKAYVHPDSPVVTVEFYKPVKLENGEWKPKKLGTKTIEVDGVDLEKAYEILLKESAGG [r13_924_TrMRF] | 0.935 ± 0.29 | 0.402 ± 0.2 |
| SAGMKPGETRHIPIRPGMPPEEFIEEIEAEGPVKIWFPGRKREIDSPDDIEDNFRNFPEPMPIEVKVPSAGG [r19_95_TrROS] | 0.695 ± 0.12 | 0.157 ± 0.28 |
| SAGGSAGGSAGGSWRVRIDLPNGKSRTIPIKPGEEVDLNEIADELSDKYNIKSISIEEPSAGGSAGGSAGGS [r4_116_TrROS] | 0.42 ± 0.14 | -0.158 ± 0.29 |
| SAGGSAGGSAGMKTRVTTFTYTEPVLLPDTGELRTVTTTVTFNKPLPEEPLFFTNTPNAGSAGGSAGGSAGG [r17_493_JUSTAS] | 0.149 ± 0.19 | -0.158 ± 0.19 |
| SAGGSAGGSTADALKDLPPGAKIEVEPHPIPNEDGWVYRQHYIKIEDPNKTVELPVIIPIPLPSAGGSAGGS [r12_892_TrROS] | -0.0369 ± 0.39 | -0.0244 ± 0.37 |
| SAGGSAGGLLPDQRVRLRLTRTSPDGEPEEATVELTNIPSSITPSSTLTFPGEGDTWEVEEITTSAGGSAGG [r6_560_TrMRF] | -0.184 ± 0.21 | < -1 |
| SAGGSASTREVGDKTLTVTPIKLPNGTNLVLLRTFDPATGKVPVLAFPPEEGNPLGESVLPASELLSAGGSA [r15_671_JUSTAS] | -0.654 ± 0.14 | < -1 |
| SAGGSAGGSAGGSSMKYFTRSASPDTTFTVKTPNGGVVNVTPTAAPGTYKYTFTLPGNSSAGGSAGGSAGGS [r4_360_JUSTAS] | -0.42 ± 0.44 | < -1 |
| SAGKLVVPILLEFPPGATLEEAKEAVEEAVEKLKESFPNAPDIEIKLVDVKVFKTEDDRYLVLALIEVGSAG [r5_985_TrMRF] | 4.51 ± 0.23 | 4.55 ± 0.43 |
| SAGGMKAKATFKIPKTFVDPKNNSPKISESEITIEREFKSEEEAKEFVEKIKEELPPELTELVSLELESAGG [r19_209_JUSTAS] | -0.601 ± 0.48 | < -1 |
| SAGGSAGGSAGGSVTIPVPENVKVRIYPPNGGRREVTAAAGATITVPAPGGEEVRIEVETSAGGSAGGSAGG [r7_357_TrMRF] | 0.715 ± 0.021 | 0.193 ± 0.1 |
| SAGGSAGMRMQIQIPNDEIPPEKIEDALQEYGWNPTDVYPPDNGVSVTFEMDPGDMNKLMEAIKKLSAGGSA [r15_161_TrROS] | 0.843 ± 0.29 | 0.107 ± 0.35 |
| SAGMPLPVKLVSFEPGANTLTIDRPYTNGPVTLSPDGTLTITGTLRDENGKPLETFTETIPVNWPEGTRSAG [r5_475_JUSTAS] | -0.24 ± 0.14 | -0.568 ± 0.17 |
| SAGGSAGGSPMPILSASADPGPDGTRTLTLRLGDKTVTFTVPASRPALIPAPADSVISLDPAGSAGGSAGGS [r12_373_TrMRF] | -0.467 ± 0.14 | -0.64 ± 0.16 |
| SAGGTIKGLPVEEIKDEIRDLFPDHPMKVDIEPIDEDEGYVRVEIEPPRPNGKTQRQEHTIPIRPDDSAGGS [r16_564_TrROS] | -0.579 ± 0.14 | -0.64 ± 0.58 |
| MTPEAFAGPGGRPLAELFLARFRRPVLDPETGLPTWEPAGVLVFPRETEPEELAAIFEALPELEEIEIAPAS [r1_132_TrMRF] | 0.149 ± 0.22 | -0.149 ± 0.22 |
